Data from the supplement of paper PMC9732359.
± gives the uncertainty stated by the source.

Experiment: protein stability index of a GFP-peptide fusion (yeast GPS) (PSI 1-4); higher = more stable; sorted into four equal gates, so the index is relative within each strain
How it was run: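 The protein stability index of a peptide was calculated by multiplying its read frequency in each gate by that gate's number and adding the products. The peptides were tiled 17-residue stretches of yeast proteins, fused downstream of GFP on a Cherry-expressing plasmid and carried in yeast as a pooled library. Mid-log cultures in leucine-free medium were sorted into four equal gates by GFP/Cherry ratio, and each gate's plasmids were PCR-amplified and Illumina-sequenced.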

Sequence	protein stability index (doa10∆)	protein stability index (pdr5∆)	protein stability index (san1∆)	protein stability index (ubr1∆)
NNSNSNNNSSNEKEQLS [SEC65]	2.77 ± 0.041	2.72 ± 0.041	2.79 ± 0.031	2.76 ± 0.035
KVDWAREHFEKTVAVDS [RPL3]	1.8 ± 0.18	–	1.54 ± 0.15	1.9 ± 0.15
SVLQLFQSVQLNINNPN [SMC2]	1.88 ± 0.049	1.89 ± 0.045	1.68 ± 0.058	1.48 ± 0.04
TATNSKGEQIAIFPYQD [ECM29]	2.44 ± 0.085	2.98 ± 0.12	3.29 ± 0.12	3.15 ± 0.15
VFQAKMMDMLKQTGRDQ [RPN11]	2.56 ± 0.061	2.58 ± 0.07	2.52 ± 0.077	2.96 ± 0.062
SVPIWVDTSTELESMLE [RRP6]	3.07 ± 0.12	3.28 ± 0.16	3.06 ± 0.063	2.96 ± 0.085
SLFSKIKTFFTQKDSAR [YAR002W/NUP60]	2.21 ± 0.091	2.84 ± 0.083	2.42 ± 0.09	2.68 ± 0.087
TYGVPGSENKRGSLDSE [NUT1]	3.31 ± 0.095	3.25 ± 0.11	3.23 ± 0.15	2.99 ± 0.074
TSTEKLYKLNDKIAVAV [PRE9]	2.84 ± 0.072	2.93 ± 0.081	3.1 ± 0.081	2.95 ± 0.068
RSISKELIVSEEIPINS [SIR3]	2.07 ± 0.051	2.09 ± 0.051	2.07 ± 0.07	1.99 ± 0.036
DPLNSNIFSEAVKNKYN [PRP28]	1.81 ± 0.17	2.74 ± 0.11	3.02 ± 0.09	2.92 ± 0.096
HECRLRDMTYSAPIYVD [RET1]	2.04 ± 0.087	1.67 ± 0.099	2.01 ± 0.21	1.91 ± 0.061
IVSEDHIILDTISECNL [MED1]	2.87 ± 0.093	3.19 ± 0.081	3.2 ± 0.077	2.83 ± 0.12
NAAPANVTGGKAANFIQ [SWI1]	2.52 ± 0.05	1.86 ± 0.045	2.48 ± 0.086	2.46 ± 0.049
AETLAEELINAAKGSST [RPS5]	2.15 ± 0.083	2.51 ± 0.095	2.32 ± 0.1	2.09 ± 0.088
NGKDSEIMYTGVSISVS [SMC3]	3.29 ± 0.22	2.87 ± 0.21	2.83 ± 0.1	2.29 ± 0.17
VSNPLIQRFFALHYLVP [COB]	1.86 ± 0.054	1.88 ± 0.059	2.32 ± 0.072	1.2 ± 0.041
NNYDDFMLSDDEGMESI [RRI2]	2.54 ± 0.26	3.71 ± 0.19	3.37 ± 0.18	–
LVQMYIGEGAKLVRDAF [RPT5]	–	–	2.51 ± 0.27	–
DIPPPAIMKPYYLWTGK [RPO31]	2.74 ± 0.068	2.77 ± 0.075	2.9 ± 0.074	2.79 ± 0.047
YNEFLYSKAGREELERV [QCR8]	2.86 ± 0.11	2.73 ± 0.19	3.35 ± 0.1	2.98 ± 0.1
YGEATSPFGAYGEAPTS [RPO21]	2.48 ± 0.065	2.58 ± 0.049	2.9 ± 0.064	2.79 ± 0.054
DPSGSYFPWKATAIGKG [PRE8]	2.93 ± 0.1	2.68 ± 0.11	2.82 ± 0.077	3.13 ± 0.075
DGMDAAHIEKQSLDTIG [RPO21]	3.36 ± 0.088	3.29 ± 0.095	3.24 ± 0.093	3.05 ± 0.083
SIKEHSTTMDGANDLGF [MED1]	2.53 ± 0.14	2.8 ± 0.073	2.15 ± 0.28	2.86 ± 0.09
QRQERLRQQQQQQDQPE [RPN10]	3.34 ± 0.098	2.88 ± 0.064	2.86 ± 0.088	3.22 ± 0.056

Sequence	protein stability index (doa10∆)	protein stability index (pdr5∆)	protein stability index (san1∆)	protein stability index (ubr1∆)
GASGEERLMSRPFGVAL [PUP2]	3.36 ± 0.14	3.24 ± 0.079	2.93 ± 0.073	3.13 ± 0.05
FLHESSFDSIDHSWFLL [CSI1]	2.67 ± 0.075	2.93 ± 0.061	2.48 ± 0.072	2.87 ± 0.044
GILGNKAQAKMDKRAKT [RPL8B]	3.58 ± 0.12	3.48 ± 0.15	3.4 ± 0.058	3.63 ± 0.079
SDIVFIHQNAGRLLRAM [BRR2]	1.73 ± 0.054	1.71 ± 0.054	1.9 ± 0.071	2.02 ± 0.06
KLEAEEIPSEDQNEFLL [FAS2]	2.62 ± 0.13	1.75 ± 0.092	2.25 ± 0.11	3.51 ± 0.16
VLHVSAKGKSGVQTAYI [RRP40]	2.48 ± 0.23	–	–	2.91 ± 0.24
FFGPTYYQRLRHMVDDK [RPB2]	1.24 ± 0.046	1.26 ± 0.046	1.72 ± 0.1	1.36 ± 0.053
SHNVDELLEHIETIGHL [RPN5]	2.51 ± 0.084	2.24 ± 0.1	2.14 ± 0.11	1.53 ± 0.082
WKDFTVEIAFLFRAIYL [YCG1]	2.36 ± 0.1	2.36 ± 0.064	2.48 ± 0.1	2.26 ± 0.071
EQSELLKAQITSLKCLV [SNF2]	1.92 ± 0.049	1.83 ± 0.048	2.16 ± 0.074	1.99 ± 0.042
INQYQLLYNLKNDILTN [SWI1]	1.63 ± 0.038	1.33 ± 0.049	1.28 ± 0.1	1.18 ± 0.036
LAFIPNILALNLVSLLI [YML031W/NDC1]	1.83 ± 0.073	1.38 ± 0.044	1.44 ± 0.098	1.73 ± 0.047
SVKKAGASINSMKANTS [ARP7]	2.07 ± 0.052	2.46 ± 0.05	2.42 ± 0.054	2.25 ± 0.037
LDLLRPVVRAPTVKYNR [RPL13A]	1.64 ± 0.13	2.38 ± 0.2	1.7 ± 0.17	2.08 ± 0.11
LEQFMERNNIGEICKNY [YDL116W/NUP84]	2.69 ± 0.11	2.6 ± 0.076	2.72 ± 0.14	2.44 ± 0.069
NYYSNKSNSTGNISSST [REC8]	2.79 ± 0.1	3.02 ± 0.099	2.85 ± 0.059	3.09 ± 0.064
LELGSCFSQENIEEMAR [SIN4]	2.02 ± 0.06	2.21 ± 0.073	2.64 ± 0.078	2.64 ± 0.073
KLFTTNELMRWPIVQKT [RPN5]	1.79 ± 0.096	1.77 ± 0.078	–	1.48 ± 0.044
ASLDGTIRLWECGTGTT [RPN14]	2.8 ± 0.093	2.91 ± 0.13	3.19 ± 0.069	2.78 ± 0.12
YIHLAYSRSVDKEWVFA [SSN2]	1.81 ± 0.079	1.5 ± 0.057	1.84 ± 0.091	1.72 ± 0.038
GGGHVSQVYAIRQAIAK [RPS16A]	2.63 ± 0.05	2.85 ± 0.045	2.75 ± 0.053	2.62 ± 0.043
RETLVKTWEKVTLDFGN [SMC2]	1.77 ± 0.063	1.74 ± 0.14	1.83 ± 0.28	1.27 ± 0.12
KEIKTNEYVIKTPVFTT [YMR129W/POM152]	2.1 ± 0.072	1.98 ± 0.056	1.88 ± 0.084	1.94 ± 0.042
LDAKNKVFVPPKSKSLP [RPO31]	2.71 ± 0.075	3.03 ± 0.062	3.37 ± 0.085	2.72 ± 0.055
VDVAKDINVKDLKASQR [RPT6]	3.35 ± 0.14	3.13 ± 0.11	2.63 ± 0.18	3.22 ± 0.098
IFSQMSRLLDILEDYCY [ISW2]	1.66 ± 0.048	2.8 ± 0.094	2.03 ± 0.11	3.01 ± 0.092
